In publication PMC7864917:

Target: wild-type pig RyR1 (ryanodine receptor 1) (pig (purified from porcine skeletal muscle)) (UniProt P16960)
UniProt P16960, sequence (P16960 whole entry): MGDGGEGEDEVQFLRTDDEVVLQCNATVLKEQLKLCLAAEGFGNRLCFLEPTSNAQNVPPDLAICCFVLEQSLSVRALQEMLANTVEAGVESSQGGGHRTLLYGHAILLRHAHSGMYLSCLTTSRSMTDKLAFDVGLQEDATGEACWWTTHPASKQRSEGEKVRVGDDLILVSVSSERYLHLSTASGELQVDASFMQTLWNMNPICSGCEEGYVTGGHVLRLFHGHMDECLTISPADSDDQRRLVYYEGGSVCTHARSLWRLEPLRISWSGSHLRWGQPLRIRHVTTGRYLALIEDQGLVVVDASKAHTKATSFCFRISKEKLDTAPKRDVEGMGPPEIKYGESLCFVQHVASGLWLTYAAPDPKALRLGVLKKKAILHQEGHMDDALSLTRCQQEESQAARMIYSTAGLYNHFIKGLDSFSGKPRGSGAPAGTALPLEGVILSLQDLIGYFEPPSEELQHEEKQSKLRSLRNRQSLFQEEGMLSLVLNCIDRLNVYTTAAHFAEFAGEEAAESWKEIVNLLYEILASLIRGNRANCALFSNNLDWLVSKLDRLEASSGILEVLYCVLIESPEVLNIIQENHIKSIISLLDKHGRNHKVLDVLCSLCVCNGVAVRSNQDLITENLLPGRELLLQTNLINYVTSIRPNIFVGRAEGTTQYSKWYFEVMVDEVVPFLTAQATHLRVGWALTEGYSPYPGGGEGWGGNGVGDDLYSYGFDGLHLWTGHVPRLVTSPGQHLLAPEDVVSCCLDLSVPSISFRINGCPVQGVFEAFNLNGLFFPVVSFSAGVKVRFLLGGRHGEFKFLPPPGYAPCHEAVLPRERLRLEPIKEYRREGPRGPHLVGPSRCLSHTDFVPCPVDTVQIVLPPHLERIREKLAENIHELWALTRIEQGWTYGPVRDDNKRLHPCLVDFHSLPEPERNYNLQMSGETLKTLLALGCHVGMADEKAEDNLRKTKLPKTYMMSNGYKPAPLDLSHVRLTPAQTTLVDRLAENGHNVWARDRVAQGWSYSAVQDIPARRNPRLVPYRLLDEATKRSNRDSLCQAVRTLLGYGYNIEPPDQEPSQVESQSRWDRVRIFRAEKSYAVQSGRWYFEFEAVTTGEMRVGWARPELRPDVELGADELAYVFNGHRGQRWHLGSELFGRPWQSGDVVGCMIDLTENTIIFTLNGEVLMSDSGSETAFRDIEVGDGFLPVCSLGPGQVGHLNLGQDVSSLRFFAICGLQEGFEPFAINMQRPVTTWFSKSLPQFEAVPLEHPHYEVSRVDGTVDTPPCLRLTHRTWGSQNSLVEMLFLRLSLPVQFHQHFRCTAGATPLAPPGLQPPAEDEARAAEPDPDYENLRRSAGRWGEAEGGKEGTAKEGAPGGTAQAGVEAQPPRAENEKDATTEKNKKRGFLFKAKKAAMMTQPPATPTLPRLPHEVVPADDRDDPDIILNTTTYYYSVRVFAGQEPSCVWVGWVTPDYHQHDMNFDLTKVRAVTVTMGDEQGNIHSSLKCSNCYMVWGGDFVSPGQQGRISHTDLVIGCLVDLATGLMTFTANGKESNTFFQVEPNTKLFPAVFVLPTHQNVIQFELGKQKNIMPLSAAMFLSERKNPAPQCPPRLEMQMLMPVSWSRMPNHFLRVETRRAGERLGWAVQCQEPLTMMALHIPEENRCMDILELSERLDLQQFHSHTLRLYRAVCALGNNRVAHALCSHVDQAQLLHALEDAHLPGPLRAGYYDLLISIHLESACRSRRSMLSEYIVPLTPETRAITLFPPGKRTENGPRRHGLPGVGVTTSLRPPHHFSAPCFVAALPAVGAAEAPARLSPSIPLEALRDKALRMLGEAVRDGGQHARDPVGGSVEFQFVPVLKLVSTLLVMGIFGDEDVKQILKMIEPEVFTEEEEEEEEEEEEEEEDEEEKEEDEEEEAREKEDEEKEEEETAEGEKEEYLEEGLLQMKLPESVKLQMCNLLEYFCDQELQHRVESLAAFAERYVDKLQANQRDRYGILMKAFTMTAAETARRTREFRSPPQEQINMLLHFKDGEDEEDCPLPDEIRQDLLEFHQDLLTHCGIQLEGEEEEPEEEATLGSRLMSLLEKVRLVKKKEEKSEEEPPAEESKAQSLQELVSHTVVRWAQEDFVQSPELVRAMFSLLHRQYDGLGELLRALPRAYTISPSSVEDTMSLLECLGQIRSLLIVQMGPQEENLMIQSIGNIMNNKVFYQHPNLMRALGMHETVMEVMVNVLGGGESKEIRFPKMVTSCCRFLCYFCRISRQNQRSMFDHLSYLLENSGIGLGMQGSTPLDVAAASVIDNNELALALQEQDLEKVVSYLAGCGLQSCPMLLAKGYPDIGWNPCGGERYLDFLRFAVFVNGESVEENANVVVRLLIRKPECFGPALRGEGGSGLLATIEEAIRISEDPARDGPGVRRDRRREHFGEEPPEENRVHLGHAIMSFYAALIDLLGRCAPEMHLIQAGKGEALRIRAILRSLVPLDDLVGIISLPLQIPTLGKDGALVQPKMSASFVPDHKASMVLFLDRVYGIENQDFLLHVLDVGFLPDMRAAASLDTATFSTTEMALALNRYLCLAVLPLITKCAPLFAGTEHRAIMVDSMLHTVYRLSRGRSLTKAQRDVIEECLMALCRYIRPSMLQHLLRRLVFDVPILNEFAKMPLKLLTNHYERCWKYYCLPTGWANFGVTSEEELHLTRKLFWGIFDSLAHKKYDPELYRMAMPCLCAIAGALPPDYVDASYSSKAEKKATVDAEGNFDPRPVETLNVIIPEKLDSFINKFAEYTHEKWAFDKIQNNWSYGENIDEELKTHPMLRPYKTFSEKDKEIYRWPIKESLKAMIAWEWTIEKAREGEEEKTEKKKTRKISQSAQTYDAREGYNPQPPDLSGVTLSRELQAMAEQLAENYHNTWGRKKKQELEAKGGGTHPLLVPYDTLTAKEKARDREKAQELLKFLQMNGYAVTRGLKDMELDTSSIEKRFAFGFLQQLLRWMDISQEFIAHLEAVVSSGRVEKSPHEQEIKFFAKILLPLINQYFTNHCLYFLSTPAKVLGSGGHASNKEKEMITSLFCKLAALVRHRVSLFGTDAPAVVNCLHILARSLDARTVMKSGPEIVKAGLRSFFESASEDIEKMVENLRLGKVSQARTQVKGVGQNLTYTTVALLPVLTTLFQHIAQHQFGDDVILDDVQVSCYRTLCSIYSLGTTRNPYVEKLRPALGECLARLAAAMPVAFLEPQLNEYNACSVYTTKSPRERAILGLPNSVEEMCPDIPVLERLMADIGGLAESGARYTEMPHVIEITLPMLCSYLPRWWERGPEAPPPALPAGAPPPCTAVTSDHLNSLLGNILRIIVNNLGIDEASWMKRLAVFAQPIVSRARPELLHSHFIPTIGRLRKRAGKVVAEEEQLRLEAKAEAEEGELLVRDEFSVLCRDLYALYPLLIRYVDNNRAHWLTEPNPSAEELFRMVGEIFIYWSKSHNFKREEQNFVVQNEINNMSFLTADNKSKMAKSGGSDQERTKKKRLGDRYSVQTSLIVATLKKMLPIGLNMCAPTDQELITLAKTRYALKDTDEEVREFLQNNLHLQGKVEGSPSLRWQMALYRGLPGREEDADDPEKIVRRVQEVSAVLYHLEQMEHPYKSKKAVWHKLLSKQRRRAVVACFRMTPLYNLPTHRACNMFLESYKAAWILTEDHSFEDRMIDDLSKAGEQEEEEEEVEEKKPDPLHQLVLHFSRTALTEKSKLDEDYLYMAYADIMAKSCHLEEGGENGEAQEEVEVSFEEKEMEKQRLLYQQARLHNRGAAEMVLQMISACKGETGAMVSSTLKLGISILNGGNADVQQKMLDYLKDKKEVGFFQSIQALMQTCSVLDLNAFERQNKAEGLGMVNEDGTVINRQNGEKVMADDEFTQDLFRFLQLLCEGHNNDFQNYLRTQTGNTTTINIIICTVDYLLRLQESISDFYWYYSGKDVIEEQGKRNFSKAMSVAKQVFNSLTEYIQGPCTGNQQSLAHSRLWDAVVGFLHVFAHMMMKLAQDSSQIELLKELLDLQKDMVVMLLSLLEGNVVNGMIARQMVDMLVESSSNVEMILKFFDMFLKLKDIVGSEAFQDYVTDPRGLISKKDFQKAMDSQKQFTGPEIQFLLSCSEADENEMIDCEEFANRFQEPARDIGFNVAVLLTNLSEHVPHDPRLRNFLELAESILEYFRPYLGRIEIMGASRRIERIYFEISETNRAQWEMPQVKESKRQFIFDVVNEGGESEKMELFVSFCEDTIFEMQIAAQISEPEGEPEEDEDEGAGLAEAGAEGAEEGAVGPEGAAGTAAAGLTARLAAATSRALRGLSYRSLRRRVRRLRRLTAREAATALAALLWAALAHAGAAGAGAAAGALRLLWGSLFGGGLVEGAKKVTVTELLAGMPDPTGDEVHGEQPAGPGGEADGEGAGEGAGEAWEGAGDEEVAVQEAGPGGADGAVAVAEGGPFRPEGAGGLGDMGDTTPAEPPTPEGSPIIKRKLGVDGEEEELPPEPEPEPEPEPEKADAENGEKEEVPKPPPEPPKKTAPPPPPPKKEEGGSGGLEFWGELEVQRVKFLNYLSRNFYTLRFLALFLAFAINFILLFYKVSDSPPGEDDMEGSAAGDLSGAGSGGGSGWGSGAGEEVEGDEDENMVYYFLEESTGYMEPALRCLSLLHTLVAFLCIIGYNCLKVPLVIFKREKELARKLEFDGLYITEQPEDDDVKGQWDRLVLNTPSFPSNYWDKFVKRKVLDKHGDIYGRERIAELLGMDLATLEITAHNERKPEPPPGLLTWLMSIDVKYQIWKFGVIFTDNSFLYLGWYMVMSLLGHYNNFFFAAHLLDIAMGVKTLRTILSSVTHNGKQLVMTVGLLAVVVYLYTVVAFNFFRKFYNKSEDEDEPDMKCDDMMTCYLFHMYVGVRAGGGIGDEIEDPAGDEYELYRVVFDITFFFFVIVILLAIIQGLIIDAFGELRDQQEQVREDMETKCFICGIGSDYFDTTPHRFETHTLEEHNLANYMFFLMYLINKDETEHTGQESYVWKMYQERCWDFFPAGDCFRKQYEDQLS

single-channel open probability (Po) in planar lipid bilayers with 1 uM calmodulin, 40 nM free Ca2+, 2 mM ATP: 2 fold
Substance: apo-calmodulin (from UniProt P0DP23 1-149) (natural protein)
